Molecular target: T1, Human CD137 ECD (human)
T1 construct: also called 4-1BB
Test: single mutant vs template dBBDu183H

T1 sequence (chain, as listed by the source limits assumed): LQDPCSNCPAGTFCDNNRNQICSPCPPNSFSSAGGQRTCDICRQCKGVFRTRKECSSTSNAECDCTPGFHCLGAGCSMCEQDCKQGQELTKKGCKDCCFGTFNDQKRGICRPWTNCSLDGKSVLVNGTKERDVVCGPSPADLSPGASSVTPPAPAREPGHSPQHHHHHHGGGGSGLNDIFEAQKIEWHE

Binder	fold change of affinity
H183/L072 VH A57Y (antibody, name in Kabat numbering, V domains shown) VH: QVQLVESGGGLVQPGRSLRLSCAASGFTFSNAWMHWVRQAPGKGLEWVAQIKDKGNAYAYYYAPSVKGRFTISRDDSKNSIYLQMNSLKTEDTAVYYCHYVHYASASTVLPAFGVDAWGQGTTVTVSS VL: DIVMTQSPLSLPVTPGEPASISCQASQELVHMNRNTYLHWYQQKPGQAPRLLIYKVSNRFPGVPDRFSGSGSGTDFTLKISRVEAEDVGVYYCAQGTSVPFTFGQGTKLEIK	0 fold
H183/L072 VH A60H (antibody, name in Kabat numbering, V domains shown) VH: QVQLVESGGGLVQPGRSLRLSCAASGFTFSNAWMHWVRQAPGKGLEWVAQIKDKGNAYAAYYHPSVKGRFTISRDDSKNSIYLQMNSLKTEDTAVYYCHYVHYASASTVLPAFGVDAWGQGTTVTVSS VL: DIVMTQSPLSLPVTPGEPASISCQASQELVHMNRNTYLHWYQQKPGQAPRLLIYKVSNRFPGVPDRFSGSGSGTDFTLKISRVEAEDVGVYYCAQGTSVPFTFGQGTKLEIK	1.3 fold
H183/L072 VH A60L (antibody, name in Kabat numbering, V domains shown) VH: QVQLVESGGGLVQPGRSLRLSCAASGFTFSNAWMHWVRQAPGKGLEWVAQIKDKGNAYAAYYLPSVKGRFTISRDDSKNSIYLQMNSLKTEDTAVYYCHYVHYASASTVLPAFGVDAWGQGTTVTVSS VL: DIVMTQSPLSLPVTPGEPASISCQASQELVHMNRNTYLHWYQQKPGQAPRLLIYKVSNRFPGVPDRFSGSGSGTDFTLKISRVEAEDVGVYYCAQGTSVPFTFGQGTKLEIK	1.1 fold
H183/L072 VH A60E (antibody, name in Kabat numbering, V domains shown) VH: QVQLVESGGGLVQPGRSLRLSCAASGFTFSNAWMHWVRQAPGKGLEWVAQIKDKGNAYAAYYEPSVKGRFTISRDDSKNSIYLQMNSLKTEDTAVYYCHYVHYASASTVLPAFGVDAWGQGTTVTVSS VL: DIVMTQSPLSLPVTPGEPASISCQASQELVHMNRNTYLHWYQQKPGQAPRLLIYKVSNRFPGVPDRFSGSGSGTDFTLKISRVEAEDVGVYYCAQGTSVPFTFGQGTKLEIK	0.8 fold
H183/L072 VH A60I (antibody, name in Kabat numbering, V domains shown) VH: QVQLVESGGGLVQPGRSLRLSCAASGFTFSNAWMHWVRQAPGKGLEWVAQIKDKGNAYAAYYIPSVKGRFTISRDDSKNSIYLQMNSLKTEDTAVYYCHYVHYASASTVLPAFGVDAWGQGTTVTVSS VL: DIVMTQSPLSLPVTPGEPASISCQASQELVHMNRNTYLHWYQQKPGQAPRLLIYKVSNRFPGVPDRFSGSGSGTDFTLKISRVEAEDVGVYYCAQGTSVPFTFGQGTKLEIK	0.7 fold
H183/L072 VH A60K (antibody, name in Kabat numbering, V domains shown) VH: QVQLVESGGGLVQPGRSLRLSCAASGFTFSNAWMHWVRQAPGKGLEWVAQIKDKGNAYAAYYKPSVKGRFTISRDDSKNSIYLQMNSLKTEDTAVYYCHYVHYASASTVLPAFGVDAWGQGTTVTVSS VL: DIVMTQSPLSLPVTPGEPASISCQASQELVHMNRNTYLHWYQQKPGQAPRLLIYKVSNRFPGVPDRFSGSGSGTDFTLKISRVEAEDVGVYYCAQGTSVPFTFGQGTKLEIK	1.1 fold
H183/L072 VH A60Q (antibody, name in Kabat numbering, V domains shown) VH: QVQLVESGGGLVQPGRSLRLSCAASGFTFSNAWMHWVRQAPGKGLEWVAQIKDKGNAYAAYYQPSVKGRFTISRDDSKNSIYLQMNSLKTEDTAVYYCHYVHYASASTVLPAFGVDAWGQGTTVTVSS VL: DIVMTQSPLSLPVTPGEPASISCQASQELVHMNRNTYLHWYQQKPGQAPRLLIYKVSNRFPGVPDRFSGSGSGTDFTLKISRVEAEDVGVYYCAQGTSVPFTFGQGTKLEIK	1.1 fold
H183/L072 VH A60F (antibody, name in Kabat numbering, V domains shown) VH: QVQLVESGGGLVQPGRSLRLSCAASGFTFSNAWMHWVRQAPGKGLEWVAQIKDKGNAYAAYYFPSVKGRFTISRDDSKNSIYLQMNSLKTEDTAVYYCHYVHYASASTVLPAFGVDAWGQGTTVTVSS VL: DIVMTQSPLSLPVTPGEPASISCQASQELVHMNRNTYLHWYQQKPGQAPRLLIYKVSNRFPGVPDRFSGSGSGTDFTLKISRVEAEDVGVYYCAQGTSVPFTFGQGTKLEIK	1.2 fold

The remaining lines, values ahead:

fold change of affinity	Binder
1.3 fold	H183/L072 VH A60N (antibody, name in Kabat numbering, V domains shown) VH: QVQLVESGGGLVQPGRSLRLSCAASGFTFSNAWMHWVRQAPGKGLEWVAQIKDKGNAYAAYYNPSVKGRFTISRDDSKNSIYLQMNSLKTEDTAVYYCHYVHYASASTVLPAFGVDAWGQGTTVTVSS VL: DIVMTQSPLSLPVTPGEPASISCQASQELVHMNRNTYLHWYQQKPGQAPRLLIYKVSNRFPGVPDRFSGSGSGTDFTLKISRVEAEDVGVYYCAQGTSVPFTFGQGTKLEIK
1 fold	H183/L072 VH A60M (antibody, name in Kabat numbering, V domains shown) VH: QVQLVESGGGLVQPGRSLRLSCAASGFTFSNAWMHWVRQAPGKGLEWVAQIKDKGNAYAAYYMPSVKGRFTISRDDSKNSIYLQMNSLKTEDTAVYYCHYVHYASASTVLPAFGVDAWGQGTTVTVSS VL: DIVMTQSPLSLPVTPGEPASISCQASQELVHMNRNTYLHWYQQKPGQAPRLLIYKVSNRFPGVPDRFSGSGSGTDFTLKISRVEAEDVGVYYCAQGTSVPFTFGQGTKLEIK
0.8 fold	H183/L072 VH A60G (antibody, name in Kabat numbering, V domains shown) VH: QVQLVESGGGLVQPGRSLRLSCAASGFTFSNAWMHWVRQAPGKGLEWVAQIKDKGNAYAAYYGPSVKGRFTISRDDSKNSIYLQMNSLKTEDTAVYYCHYVHYASASTVLPAFGVDAWGQGTTVTVSS VL: DIVMTQSPLSLPVTPGEPASISCQASQELVHMNRNTYLHWYQQKPGQAPRLLIYKVSNRFPGVPDRFSGSGSGTDFTLKISRVEAEDVGVYYCAQGTSVPFTFGQGTKLEIK
1.2 fold	H183/L072 VH A60R (antibody, name in Kabat numbering, V domains shown) VH: QVQLVESGGGLVQPGRSLRLSCAASGFTFSNAWMHWVRQAPGKGLEWVAQIKDKGNAYAAYYRPSVKGRFTISRDDSKNSIYLQMNSLKTEDTAVYYCHYVHYASASTVLPAFGVDAWGQGTTVTVSS VL: DIVMTQSPLSLPVTPGEPASISCQASQELVHMNRNTYLHWYQQKPGQAPRLLIYKVSNRFPGVPDRFSGSGSGTDFTLKISRVEAEDVGVYYCAQGTSVPFTFGQGTKLEIK
0.6 fold	H183/L072 VH A60D (antibody, name in Kabat numbering, V domains shown) VH: QVQLVESGGGLVQPGRSLRLSCAASGFTFSNAWMHWVRQAPGKGLEWVAQIKDKGNAYAAYYDPSVKGRFTISRDDSKNSIYLQMNSLKTEDTAVYYCHYVHYASASTVLPAFGVDAWGQGTTVTVSS VL: DIVMTQSPLSLPVTPGEPASISCQASQELVHMNRNTYLHWYQQKPGQAPRLLIYKVSNRFPGVPDRFSGSGSGTDFTLKISRVEAEDVGVYYCAQGTSVPFTFGQGTKLEIK
1 fold	H183/L072 VH A60S (antibody, name in Kabat numbering, V domains shown) VH: QVQLVESGGGLVQPGRSLRLSCAASGFTFSNAWMHWVRQAPGKGLEWVAQIKDKGNAYAAYYSPSVKGRFTISRDDSKNSIYLQMNSLKTEDTAVYYCHYVHYASASTVLPAFGVDAWGQGTTVTVSS VL: DIVMTQSPLSLPVTPGEPASISCQASQELVHMNRNTYLHWYQQKPGQAPRLLIYKVSNRFPGVPDRFSGSGSGTDFTLKISRVEAEDVGVYYCAQGTSVPFTFGQGTKLEIK
0.1 fold	H183/L072 VH A60P (antibody, name in Kabat numbering, V domains shown) VH: QVQLVESGGGLVQPGRSLRLSCAASGFTFSNAWMHWVRQAPGKGLEWVAQIKDKGNAYAAYYPPSVKGRFTISRDDSKNSIYLQMNSLKTEDTAVYYCHYVHYASASTVLPAFGVDAWGQGTTVTVSS VL: DIVMTQSPLSLPVTPGEPASISCQASQELVHMNRNTYLHWYQQKPGQAPRLLIYKVSNRFPGVPDRFSGSGSGTDFTLKISRVEAEDVGVYYCAQGTSVPFTFGQGTKLEIK

— patent US20210388087A1 (Chugai, published 2021)
